Test results published in US20040229298A1.
Where “and” joins values, the source holds several entries; their conditions need not be identical. Identical values can stand only once.

What was measured:
[1] = molecular target: HPV16 E6 PDZ ligand peptide (biotinylated C-terminal peptide of the E6 protein of HPV 16) (human papillomavirus 16) (UniProt P03126); assay: G assay ELISA, immobilised GST-PDZ, 10 uM biotinylated peptide
[2] = molecular target: HPV16 E6 PDZ ligand peptide (biotinylated C-terminal peptide of the E6 protein of HPV 16) (human papillomavirus 16) (UniProt P03126); assay: G assay ELISA, signal over GST-only well
[3] = molecular target: GST-Magi3 PDZ domain 1 (human) (UniProt Q5TCQ9); assay: Matrix/G assay ELISA, E6 peptide titrated on GST-PDZ
Sequence of GST-Magi3 PDZ domain 1 (human) (Q5TCQ9 other isoform, or with tags, fused parts or gaps limits assumed, form in doubt): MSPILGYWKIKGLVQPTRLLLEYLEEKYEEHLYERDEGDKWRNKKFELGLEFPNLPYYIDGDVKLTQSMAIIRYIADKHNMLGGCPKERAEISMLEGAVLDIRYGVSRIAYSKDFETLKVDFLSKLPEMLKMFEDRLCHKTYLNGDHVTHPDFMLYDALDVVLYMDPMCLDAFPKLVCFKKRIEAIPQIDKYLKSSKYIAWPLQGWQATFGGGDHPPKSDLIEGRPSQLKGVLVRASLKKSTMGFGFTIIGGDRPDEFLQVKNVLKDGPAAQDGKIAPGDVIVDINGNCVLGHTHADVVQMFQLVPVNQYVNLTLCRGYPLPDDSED

[4] = molecular target: GST-VARTUL PDZ domain (number not stated) (human) (UniProt Q14160); assay: as above
Sequence of GST-VARTUL PDZ domain (number not stated) (human) (Q14160 other isoform, or with tags, fused parts or gaps limits assumed): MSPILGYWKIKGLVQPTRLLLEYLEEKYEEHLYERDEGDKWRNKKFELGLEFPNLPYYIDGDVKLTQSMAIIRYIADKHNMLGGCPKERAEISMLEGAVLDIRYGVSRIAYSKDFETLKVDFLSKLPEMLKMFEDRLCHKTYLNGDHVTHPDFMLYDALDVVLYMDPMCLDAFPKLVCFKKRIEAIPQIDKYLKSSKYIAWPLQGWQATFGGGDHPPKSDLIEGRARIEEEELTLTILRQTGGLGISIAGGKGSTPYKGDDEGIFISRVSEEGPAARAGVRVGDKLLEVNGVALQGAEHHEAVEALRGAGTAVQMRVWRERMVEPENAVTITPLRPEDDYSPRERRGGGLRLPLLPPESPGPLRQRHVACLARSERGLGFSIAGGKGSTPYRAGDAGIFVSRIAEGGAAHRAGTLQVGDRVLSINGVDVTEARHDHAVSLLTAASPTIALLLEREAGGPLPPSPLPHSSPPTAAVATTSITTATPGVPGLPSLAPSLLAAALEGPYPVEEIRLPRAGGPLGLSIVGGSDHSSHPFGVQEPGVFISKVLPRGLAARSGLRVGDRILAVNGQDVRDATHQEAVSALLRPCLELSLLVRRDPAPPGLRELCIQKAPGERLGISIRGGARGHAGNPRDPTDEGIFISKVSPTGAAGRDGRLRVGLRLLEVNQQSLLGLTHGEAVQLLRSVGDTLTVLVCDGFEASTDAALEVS

[5] = molecular target: GST-Magi3 PDZ domain 1 (human) (UniProt Q5TCQ9); assay: G assay ELISA, E6 PL peptide titrated on constant GST-PDZ
[6] = molecular target: GST-VARTUL PDZ domain (number not stated) (human) (UniProt Q14160); assay: as above
[7] = molecular target: GST-Magi2 PDZ domain 3 (human) (UniProt Q86UL8); assay: G assay ELISA, 10 uM biotin peptide on anti-GST-captured GST-PDZ
Sequence of GST-Magi2 PDZ domain 3 (human) (Q86UL8 other isoform, or with tags, fused parts or gaps limits assumed, form in doubt): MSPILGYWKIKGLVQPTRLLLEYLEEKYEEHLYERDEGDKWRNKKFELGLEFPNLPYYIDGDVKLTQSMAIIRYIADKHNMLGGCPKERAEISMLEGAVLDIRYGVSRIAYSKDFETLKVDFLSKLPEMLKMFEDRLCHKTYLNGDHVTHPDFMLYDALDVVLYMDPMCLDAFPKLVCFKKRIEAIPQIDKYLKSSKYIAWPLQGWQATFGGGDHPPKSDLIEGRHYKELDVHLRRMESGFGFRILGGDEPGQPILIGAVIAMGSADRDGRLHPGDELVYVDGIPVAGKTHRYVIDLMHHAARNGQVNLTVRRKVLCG

[8] = molecular target: GST-PAR3 PDZ domain 3, clone #278.1 (human); assay: as above
[9] = molecular target: GST-MAGI 1 PDZ domain 5 (human); assay: as above
[10] = molecular target: GST-MINT1 PDZ domains 1, 2 (human) (UniProt Q02410); assay: as above
Sequence of GST-MINT1 PDZ domains 1, 2 (human) (Q02410 other isoform, or with tags, fused parts or gaps limits assumed): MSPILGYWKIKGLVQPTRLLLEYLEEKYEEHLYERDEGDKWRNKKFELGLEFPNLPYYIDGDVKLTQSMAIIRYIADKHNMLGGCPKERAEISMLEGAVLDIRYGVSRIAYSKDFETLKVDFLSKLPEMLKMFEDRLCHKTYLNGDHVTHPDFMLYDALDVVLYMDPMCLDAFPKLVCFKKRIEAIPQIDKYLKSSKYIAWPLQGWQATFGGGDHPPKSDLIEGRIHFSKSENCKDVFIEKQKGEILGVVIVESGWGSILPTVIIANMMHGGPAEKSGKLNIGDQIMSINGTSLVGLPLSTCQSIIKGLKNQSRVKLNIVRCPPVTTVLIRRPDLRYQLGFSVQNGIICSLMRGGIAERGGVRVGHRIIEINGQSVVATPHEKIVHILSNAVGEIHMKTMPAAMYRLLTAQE

[11] = molecular target: GST-EBP50 PDZ domain 2, clone #168.2 (human); assay: as above
[12] = molecular target: GST-DLG-6 PDZ domain 1, clone #333.1 (human) (UniProt Q96JB8); assay: as above
Sequence of GST-DLG-6 PDZ domain 1, clone #333.1 (human) (Q96JB8 other isoform, or with tags, fused parts or gaps): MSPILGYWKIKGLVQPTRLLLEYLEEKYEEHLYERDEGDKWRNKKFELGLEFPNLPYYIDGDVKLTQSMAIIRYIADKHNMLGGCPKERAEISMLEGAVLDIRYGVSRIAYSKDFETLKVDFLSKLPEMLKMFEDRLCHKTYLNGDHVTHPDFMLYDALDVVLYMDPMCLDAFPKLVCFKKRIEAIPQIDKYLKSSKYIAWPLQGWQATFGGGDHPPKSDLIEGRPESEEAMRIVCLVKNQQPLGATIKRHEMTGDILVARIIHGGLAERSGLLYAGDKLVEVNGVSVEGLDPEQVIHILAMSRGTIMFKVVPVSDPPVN

[13] = molecular target: GST-HEMBA 1003117 PDZ domain 1, clone #226.2 (human); assay: as above
[14] = molecular target: GST-EBP50 PDZ domain 1, clone #341.1 (human); assay: as above
[15] = molecular target: GST-KIAA1526 PDZ domain 1, clone #119.1 (human); assay: as above
[16] = molecular target: GST-PTPL1 PDZ domain 2 (human); assay: as above
[17] = molecular target: GST-Densin PDZ domain 1 (human); assay: as above
[18] = molecular target: GST-PIST PDZ domain 1 (human); assay: as above
[19] = molecular target: GST-KIAA1719 PDZ domain 5 (human); assay: as above

GST-NeDLG PDZ domain 1 fusion protein
Ave OD [1]: 0.516 A450 nm
OD S/N [2]: 1.98

GST-INADL PDZ domain 3 fusion protein
Ave OD [1]: 0.485 A450 nm
OD S/N [2]: 1.86

GST-Magi2 PDZ domain 5 fusion protein (from UniProt Q86UL8 920-1010)
Ave OD [1]: 0.651 A450 nm
OD S/N [2]: 3.93

GST-PDZK1 PDZ domain 3 fusion protein
Ave OD [1]: 0.5 A450 nm
OD S/N [2]: 1.92

HPV16 E6 C-terminal PDZ ligand peptide (20 mer, biotinylated) (from UniProt P03126 139-158)
EC50 [3]: 310 nM
EC50 [4]: 940 nM
EC50 [5]: 310 nM
EC50 [6]: 940 nM
Ave OD [7]: 0.416 A450 nm and 0.359 A450 nm
OD S/N (ratio to GST only well) [7]: 1.98 and 1.65
Ave OD [8]: 0.352 A450 nm
OD S/N (ratio to GST only well) [8]: 1.8
Ave OD [9]: 0.432 A450 nm
OD S/N (ratio to GST only well) [9]: 1.77
Ave OD [10]: 0.365 A450 nm
OD S/N (ratio to GST only well) [10]: 1.42
Ave OD [11]: 0.345 A450 nm
OD S/N (ratio to GST only well) [11]: 1.99
Ave OD [12]: 0.349 A450 nm
OD S/N (ratio to GST only well) [12]: 2.04
Ave OD [13]: 0.36 A450 nm
OD S/N (ratio to GST only well) [13]: 1.66
Ave OD [14]: 0.43 A450 nm
OD S/N (ratio to GST only well) [14]: 1.65
Ave OD [15]: 0.425 A450 nm
OD S/N (ratio to GST only well) [15]: 1.38
Ave OD [16]: 0.348 A450 nm
OD S/N (ratio to GST only well) [16]: 1.8
Ave OD [17]: 0.42 A450 nm and 0.35 A450 nm
OD S/N (ratio to GST only well) [17]: 1.96 and 1.82
Ave OD [18]: 0.386 A450 nm
OD S/N (ratio to GST only well) [18]: 1.96
Ave OD [19]: 0.39 A450 nm
OD S/N (ratio to GST only well) [19]: 1.81
